Experimental data from patent US20080166364A1 (COVX TECHNOLOGY IRELAND, published 2008).
Values belong to the binder of their own block, whether it stands above or below them. Non-standard residues stand in square brackets, D forms with d. No end group written: not given here. Phe(4-COOH) = N[C@@H](Cc1ccc(C(=O)O)cc1)C(=O)O; Bpa = N[C@@H](Cc1ccc(C(=O)c2ccccc2)cc1)C(=O)O; 0P linker = not defined here; acyl = not defined here

What was measured:
[1] = target: T1, human angiopoietin-2 protein (human, UniProt O15123 19-496); assay: competitive ELISA, coated Ang-2, 0.25 nM hTie-2-Fc; T form
T1 construct: bought; also called Ang-2; Ang2
T1 sequence (looked up): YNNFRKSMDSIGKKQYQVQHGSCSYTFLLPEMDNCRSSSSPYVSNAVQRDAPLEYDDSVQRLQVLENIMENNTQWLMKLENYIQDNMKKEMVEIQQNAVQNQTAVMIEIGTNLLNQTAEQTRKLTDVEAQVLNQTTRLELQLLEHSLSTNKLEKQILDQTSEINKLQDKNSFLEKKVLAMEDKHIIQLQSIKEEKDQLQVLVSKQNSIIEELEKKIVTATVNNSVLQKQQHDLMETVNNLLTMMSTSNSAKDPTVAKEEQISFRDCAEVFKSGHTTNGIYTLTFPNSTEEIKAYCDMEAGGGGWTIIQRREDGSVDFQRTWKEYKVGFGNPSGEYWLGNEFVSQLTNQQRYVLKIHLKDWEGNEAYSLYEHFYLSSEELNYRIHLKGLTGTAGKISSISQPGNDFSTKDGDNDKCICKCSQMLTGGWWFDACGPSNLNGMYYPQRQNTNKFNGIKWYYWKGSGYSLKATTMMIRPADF
Experimental: (§1) For competitive ELISA, human angiopoietin-2 protein and Tie-2-Fc (R&D Systems) were reconstituted without carrier protein. Mouse anti-human Tie-2 (Pharmingen) was used as the primary antibody and goat anti-mouse-IgG1-HRP (Pierce) was used as the secondary antibody. TMB substrate from Pierce was used.
(§2) High-binding half-well plates were coated with Ang-2 (100 ng/well) in 50 μl PBS and incubated at 4° C. overnight. Plates were washed three times with washing buffer (0.1% Tween 20, PBS, pH 7.4) and blocked with Superblock (Scytek), 100 μl/well at room temperature (“RT”) for 1 hour. After removing the blocking solution, 50 μl of an Ang-2 binding peptide compound (1 uM and 5× serial dilution) in the presence of 0.25 nM hTie-2-Fc using Superblock as diluent was added and incubated at RT for 2 hours. Plates were washed 3 times with washing buffer. Then, 50 ul of 0.1 ug/ml mouse anti-human Tie-2 diluted in Superblock added and incubated at RT for 1 hour. Following incubation, 50 ul of 1:5,000 dilution of goat anti-mouse IgG-HRP in Superblock was then added and incubated at RT for one hour. After washing 3 times, 50 μl (25 μl TMB+25 μl H₂O₂) was added, and incubated for 3-5 minutes. Color development was monitored and stopped with 25 μl of 2 M H₂SO₄. OD450 nm with a correction wavelength of 540 nm was measured.

[2] = target: T1, human angiopoietin-2 protein; assay: competition ELISA, coated Ang-2, competitor compound 43-0P-h38c2 10 ng/mL; T form
Experimental: Recombinant human Ang-2 was coated on microtiter plates at 0.5 μg/mL in 100 μL , overnight at 2-8° C. Plates were washed between all steps and all subsequent incubations occurred at room temperature. Plates were blocked with 250 μL per well of SuperBlock for 1-3 hours. Test compounds were pre-mixed with compound 43 linked to linker (as shown in FIG. 3) and h38c2 AT 10 ng/mL. Peptide mixtures in 100 μL were then added at the listed final concentrations, then plates sealed, and incubated for 1-2 hours. Bound compounds 43 was detected with 100 uL of a 1:20,000 dilution of HRP-labeled anti-human IgG reagent for solution.

[3] = target: T1, human angiopoietin-2 protein; assay: competitive ELISA, coated Ang-2, 0.25 nM hTie-2-Fc; peptide alone
Experimental: as §1, §2

[4] = target: T1, human angiopoietin-2 protein; assay: reverse competitive ELISA, coated Tie-2-Fc, 0.83 nM Ang-2; peptide printed without linker, column headed P
Experimental: For reverse competition ELISA, human Tie-2-Fc, angiopoietin-2 protein, biotinylated anti-human Ang-2 antibody, and streptavidin HRP (R&D Systems) and TMB substrate from Pierce were used.
High-binding half-well plates were coated with Tie-2-Fc (50 ng/well) in 50 μl PBS and incubated at 4° C. overnight. Plates were washed three times with washing buffer (0.1% Tween 20, PBS, pH 7.4) and blocked with Superblock, 150 μl/well at RT for 1 hour. Plates were washed three times. Following washing, 50 μl of an Ang-2 binding peptide compound (50 nM, 5× serial dilution) in the presence of 50 ng/ml (0.83 nM) Ang-2 in Superblock were added and incubated at RT for 1 hour. Plates were washed 3 times, 50 μl of 1 μg/well biotinylated anti-Ang-2 detection antibody in Superblock was added and incubated at RT for 2 hours. Plates were washed 3 times, and 50 μl of streptavidin HRP (1:200 dilution in Superblock) was added at RT for 20 minutes. Plates were washed 3 times, and 50 μl (25 μl TMB+25 μl H₂O₂) substrate solution was added and incubated for 20-30 minutes. Color development was stopped with 25 μl of 2 M H₂SO₄. OD450 nm with a correction wavelength of 540 nm was measured.

- IC50 [1]: 110 nM
B1: Compound 57 (T): targeting peptide plus 0P linker (peptide)
peptide: QNYQPLDELDK(0P linker)TL[Phe(4-COOH)]DQFMLQQG
modifications: not fully specified (N-terminus, C-terminus); printed as QNY QPL DEL DK(0P)T L(CF)D QFM LQQ G; reading uncertain

- IC50 [1]: 598 nM
Binder: QXYQPLDELDXTLYDQFMLQQG (N-term acyl cap; C-term NH2 cap; AcK at 2; Dap at 11 carrying the 0P linker) [Compound 55 (T): targeting peptide plus 0P linker]

- IC50 [2]: 444 nM
B4: Compound 85 (T): targeting peptide plus 0P linker (peptide)
peptide: Ac-QK(Ac)YQPLDEK(Ac)DK(0P linker)TLYDQFML-NH2
modifications: reading uncertain
notes: C-terminal truncation of 43(a) by 3 residues

- IC50 [2]: 847 nM
B5: Compound 86 (T): targeting peptide plus 0P linker (peptide)
peptide: Ac-QK(Ac)YQPLDEK(Ac)DK(0P linker)TLYDQFM-NH2
modifications: reading uncertain
notes: C-terminal truncation of 43(a) by 4 residues

- IC50 [1]: 499 nM
B6: Compound 62 (T): targeting peptide plus 0P linker (peptide)
peptide: acyl-QK(Ac)YQPLDEK(Ac)DK(0P linker)TL[Phe(4-COOH)]DQFMLQQG-NH2
modifications: reading uncertain; also: printed as Q(AcK)Y QPL DE(AcK) DK(0P)T L(CF)D QFM LQQ G

- IC50 [2]: 190 nM
B7: Compound 84 (T): targeting peptide plus 0P linker (peptide)
peptide: Ac-QK(Ac)YQPLDEK(Ac)DK(0P linker)TLYDQFMLQ-NH2
modifications: reading uncertain
notes: C-terminal truncation of 43(a) by 2 residues

- IC50 [1]: 83.9 nM
B8: Compound 61 (T): targeting peptide plus 0P linker (peptide)
peptide: QXYQPLDELDXTLYDQFMLQQG
modifications: not fully specified; N-term acyl cap; C-term NH2 cap; NicK (nicotinyl lysine) at 2; 0P linker on K11
notes: only one IC50 printed, standing in column T

- IC50 [1]: 292 nM
Binder: QXYQPLDELDXTLYDQFMLQQG (N-term acyl cap; C-term NH2 cap; AcK at 2; Dab at 11 carrying the 0P linker) [Compound 54 (T): targeting peptide plus 0P linker]

- IC50 [1]: 92.2 nM
Binder: acyl-QNYQPLDELDK(0P linker)TL[Bpa]DQFMLQQG-NH2 (reading uncertain; also: printed as QNY QPL DEL DK(0P)T L(BPA)D QFM LQQ G) [Compound 56 (T): targeting peptide plus 0P linker]

- IC50 [2]: 111 nM
B10: Compound 83 (T): targeting peptide plus 0P linker (peptide)
peptide: Ac-QK(Ac)YQPLDEK(Ac)DK(0P linker)TLYDQFMLQQ-NH2
modifications: reading uncertain
notes: C-terminal truncation of 43(a) by 1 residue

The remaining lines, values behind:

Binder: XKYQPLDELDKTLYDQFMLQQG (not fully specified; 0P linker at the N-terminus (no acyl cap); C-term NH2 cap) [Compound 26 (T): targeting peptide plus 0P linker]
- IC50 [1]: 32.3 nM

B2: Compound 53 (T): targeting peptide plus 0P linker (peptide)
peptide: QXYQPLDELDXTLYDQFMLQQG
modifications: N-term acyl cap; C-term NH2 cap; (ClBnCarbamate)K at 2; 0P linker on K11
notes: as for B8
- IC50 [1]: 147 nM

B3: Compound 52 (T): targeting peptide plus 0P linker (peptide)
peptide: QXYQPLDELDXTLYDQFMLQQG
modifications: not fully specified; N-term amido 2-PEG cap; C-term NH2 cap; AcK at 2; 0P linker on K11
- IC50 [1]: 134 nM

Binder: QXYQPLDELDXTLYDQFMLQQG (N-term DCB (dichlorobenzoyl) cap; C-term NH2 cap; AcK at 2; 0P linker on K11) [Compound 49 (T): targeting peptide plus 0P linker]
- IC50 [1]: 28.4 nM

Binder: QXYQPLDEXDXTLYDQFMLQQG (N-term ac; C-term am; AcK at 2; AcK at 9; 0P linker on K11) [Compound 43(a) (T): targeting peptide plus 0P linker]
- IC50 [2]: 139 nM

Binder: QXYQPLDELDXTLYDQFMLQQG (N-term DFB (difluorobenzoyl) cap; C-term NH2 cap; AcK at 2; 0P linker on K11) [Compound 50 (T): targeting peptide plus 0P linker]
- IC50 [1]: 33 nM

Binder: QKYQPLDELDKTLYDQFMLQQG-NH2 (not fully specified (N-terminus); also: N-term acyl cap, acyl not given here, not conjugated to linker or antibody) [Compound 21: Ang-2 binding peptide alone]
- IC50 [3]: 25.8 nM
- IC50 [4]: 36.4 nM

Binder: QNYQPLDELDKTLYDQFMLQQG-NH2 (not fully specified (N-terminus); also: N-term acyl cap, acyl not given here, not conjugated to linker or antibody) [Compound 23: Ang-2 binding peptide alone]
- IC50 [3]: 27.8 nM

Binder: QXYQPLDELDKTLYDQFMLQQG (not fully specified; N-term acyl cap; C-term NH2 cap; AcK at 2, not conjugated to linker or antibody) [Compound 22: Ang-2 binding peptide alone]
- IC50 [4]: 14.4 nM

B9: Compound 51 (T): targeting peptide plus 0P linker (peptide)
peptide: QXYQPLDELDXTLYDQFMLQQG
modifications: not fully specified; N-term PyC (pyridinyl carboxylate) cap; C-term NH2 cap; AcK at 2; 0P linker on K11
- IC50 [1]: 14.3 nM
